In the supplement of paper PMC10567573:
± gives the standard deviation.

Assay: protein stability index of a GFP-peptide fusion (GPS, HEK-293T) (PSI 1-6); higher = more stable
Conditions: c terminus: a fixed tail appended
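Also: 24-mer peptide tiles fused after GFP, lentivirally expressed, FACS-sorted into six equal bins by GFP/DsRed ratio, decoded by Illumina sequencing, PSI is the read-weighted mean bin number.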

Sequence | protein stability index (treatment: DMSO) | protein stability index (treatment: MLN4924 1 uM, 8 h)
LFIILQVGLNTIADLWYLFGDLSL [POMT2] | 3.06 ± 0.84 | 3.17 ± 0.064
LFLFGYKFSGLYILSFTVIMVGFI [SLC35F2] | 3.64 ± 0.12 | 3.18 ± 0.41
LFLGRILSLTSSASRLLTTALTSF [FANCE] | 2.44 ± 0.1 | 2.27 ± 0.19
LGDLLMPTMAPAGQPAPVSMVPPS [SNAP91] | 3.26 ± 0.2 | 3.51 ± 0.18
LGEDNQPETQLFWDKEPWFWHDTL [TLE6] | 3.37 ± 0.35 | 3.32 ± 0.27
LGGVKKSATLRSFEGLMGTIKSKV [TPD52L3] | 2.64 ± 0.3 | 2.54 ± 0.26
LGSTKLSDKDKAVGIFNTVINPML [OR3A1] | 3 ± 0.46 | 3.19 ± 0.28
LGSYKAQKTSRSSSIPCSGSLDGR [PPEF2] | 4.177 ± 0.013 | 4.43 ± 0.14
LGVALFTMLAGHYPFQDSEPVLLF [TRIB3] | 2.94 ± 0.59 | 2.93 ± 0.27
LHLKRQPKRRWLFWNSPSSPSSSA [RHOBTB2] | 2.27 ± 0.25 | 2.53 ± 0.21
LHYKWIPVEDSHTADISSHFQEAI [DUSP5] | 2.17 ± 0.23 | 2.25 ± 0.52
LHYQDTDSDVPEQRDSKCKVKWTH [MYBL2] | 3.77 ± 0.32 | 4.05 ± 0.19
LIKNFHQYSVEGGKETLTPSELRD [S100A14] | 4.15 ± 0.2 | 4.3 ± 0.26
LILELVSGGELFDFLAEKESLTED [DAPK3] | 1.94 ± 0.18 | 2.49 ± 0.43
LIQQFLTLRPDQQLHIFNTLRSHL [CDS2] | 2.37 ± 0.16 | 2.34 ± 0.27
LIYASYFALIAVVFLASGAVSVMK [SLC19A2] | 2.95 ± 0.27 | 3.44 ± 0.43
LKHQTVYRLLKCAPRGKNGFTPLH [FEM1A] | 2.71 ± 0.69 | 2.39 ± 0.57
LKKGSKEKQADFLDKQMSRDEHRA [NFE2L1] | 5 ± 0.39 | 5.08 ± 0.32
LKLVSFSKLCTSYSHSSTRDGRRD [GOSR1] | 2.81 ± 0.3 | 2.79 ± 0.35
LKTFVKQTDHIKGIRQITSDDFCT [GFOD1] | 3.29 ± 0.4 | 3.26 ± 0.23
LLALAGAVQRLEGALWGLQAQAVQ [SCARA5] | 3.33 ± 0.29 | 3.48 ± 0.14
LLASLTGGVLIDRYGRRTAIILSS [SLC2A12] | 2.86 ± 0.5 | 3.06 ± 0.87
LLAVPNIILTNQSVREVTQIKCIE [P2RY14] | 2.53 ± 0.29 | 2.35 ± 0.21

Sequence | protein stability index (treatment: DMSO) | protein stability index (treatment: MLN4924 1 uM, 8 h)
LLCGAAFGRLVANVLKSYIGLGHI [CLCN6] | 2.66 ± 0.42 | 3.14 ± 0.46
LLHMPQPVNPELTAGPITGLVYRL [TRIM43] | 2.26 ± 0.3 | 2.67 ± 0.36
LLLGTAYSFYLFHPLAYGMVGPLA [POMT2] | 3.32 ± 0.18 | 3.18 ± 0.59
LLVVGGFGSQQSPIDVVEKYDPKT [KLHL12] | 3 ± 0.55 | 3.61 ± 0.33
LPCQHNLCRKCANDIFQAANPYWT [TRIM63] | 2.38 ± 0.18 | 2.29 ± 0.14
LPNKQVLGLSKLARIVEIYSRRLQ [GCH1] | 2.31 ± 0.5 | 2.08 ± 0.53
LPPCLLPLSPPTAPDRATAVATAS [TRIB3] | 4.45 ± 0.31 | 4.35 ± 0.26
LPPPPPPSRGGNQLPRPPIVGGNK [WAS] | 5.11 ± 0.6 | 5.01 ± 0.33
LPSERLDFSMAEALNQEFLATRSN [PRPH] | 4.24 ± 0.17 | 4.3 ± 0.2
LPSVFGSLRDSGYFYDPIERDIEI [RSPH3] | 2.31 ± 0.37 | 2.64 ± 0.61
LQAELAAQEALREKAAALERQLKV [LRRC45] | 4.18 ± 0.094 | 4.25 ± 0.29
LQASDRYRDLAGGTGRSAKEQVLR [FCHSD1] | 4.18 ± 0.24 | 4.29 ± 0.11
LQEPGEPQGPPASPSCPEEALAAT [PXN] | 5.44 ± 0.22 | 5.278 ± 0.023
LQISEELLSRNQLSTAASLGPSGL [LCOR] | 3.5 ± 0.14 | 3.35 ± 0.41
LQLKETLATQEPTDNQVRLRKRKE [DLC1] | 5.18 ± 0.3 | 5.32 ± 0.24
LQSLRPHDEDIKTTNVKSASRQKT [ZNF396] | 5.14 ± 0.089 | 5.04 ± 0.28
LREIVHKPGPITLTVAKCWDPSPR [DVL3] | 2.8 ± 0.28 | 2.93 ± 0.32
LRFCHNNKKAKRYLLHGLECVVAM [EIF5] | 2.14 ± 0.33 | 2.23 ± 0.6
LRIPFPRDCGEEMQNGAGASRTST [TNXB] | 4.02 ± 0.45 | 4.28 ± 0.79
LRLEGLLCDVTLMPGDTDDAFPVH [KLHL13] | 2.42 ± 0.24 | 2.48 ± 0.35
LRRVLDELTLARTDLEMQIEGLKE [KRT16] | 2.9 ± 0.52 | 3.07 ± 0.14
LRSPRKFGVAGRSCQEVLRKGCLR [DFFB] | 2.9 ± 0.19 | 2.74 ± 0.35
LRVMTTNIRSARGNNPNGREAKMI [ELOA2] | 3.25 ± 0.18 | 3.49 ± 0.26

Sequence | protein stability index (treatment: DMSO) | protein stability index (treatment: MLN4924 1 uM, 8 h)
LSFSDALLSIIATVMILPVTHTEI [TMEM175] | 3.15 ± 0.29 | 2.88 ± 0.58
LSILRHQNLLKELQDLALQGAKER [CHGA] | 3.02 ± 0.087 | 3.08 ± 0.27
LSIRCQHQEQVEDLTASHDAALLE [MTUS2] | 4.66 ± 0.22 | 4.86 ± 0.19
LSLHVKSLGASPTVAGIVGSSYGI [MFSD9] | 2.71 ± 0.93 | 2.42 ± 0.38
LSLLGKLTISAAFNIVYIYTSELY [SLC22A15] | 3.31 ± 0.21 | 3.25 ± 0.28
LSPEPPVYSLQDFDTLATVGTGTF [PRKX] | 3.64 ± 0.21 | 3.59 ± 0.31
LSVLQIAQQDLAPDPDAWLRALGE [FANCE] | 2.81 ± 0.39 | 2.75 ± 0.3
LTFAKSSWARQESLQERKQALYEY [AUP1] | 2.78 ± 0.43 | 2.67 ± 0.39
LTQKRSQLVKKLNDSDHQSSTSPL [VPS39] | 4.8 ± 0.23 | 4.69 ± 0.29
LVENIIDIYKQECSSRPLQKGSHP [TRIM63] | 2.36 ± 0.17 | 2.56 ± 0.13
LVLLIIIGIPLFFLELAVGQRIRR [SLC6A17] | 3.2 ± 0.25 | 3.2 ± 0.5
LVVLVVAVVASSVNSYYSSPAQQV [TOR1AIP2] | 3.22 ± 0.11 | 3.21 ± 0.23
LVWIRGPGFGCKAVRCASGRCTVR [SDE2] | 2.37 ± 0.87 | 2.36 ± 0.42
LYAFFTRTHGDMHSLVRSRHRIPE [TRIB3] | 2.18 ± 0.046 | 2.26 ± 0.45
LYQTELVENECYQVFLDRINRADY [TOR1AIP2] | 2.45 ± 0.27 | 2.71 ± 0.15
LYSLTLYGLRGPHKADSIQGTART [TNXB] | 2.11 ± 0.21 | 2.48 ± 0.3
LYYQSQELPNGSVKEAPAPTPTSL [PDZK1] | 3.87 ± 0.27 | 3.93 ± 0.19
MAAEIHSRPQSSRPVLLSKIEGHQ [WDFY1] | 3.84 ± 0.13 | 3.88 ± 0.23
MAAMETETAPLTLESLPTDPLLLI [FBXO3] | 3.44 ± 0.25 | 3.43 ± 0.18
MACPYSVLISGDIKDRLKKKEDCL [FAM98B] | 2.87 ± 0.071 | 3.49 ± 0.38
MAGAPDERRRGPAAGEQLQQQHVS [ATP23] | 5.058 ± 0.01 | 4.57 ± 0.25
MAGLSKEPNTLRAPRVRTAFTMEQ [VENTX] | 3.54 ± 0.28 | 3.75 ± 0.22
MAQYKGAASEAGRAMHLMKKREKQ [FAM50A] | 4.7 ± 0.34 | 4.47 ± 0.4

Sequence | protein stability index (treatment: DMSO) | protein stability index (treatment: MLN4924 1 uM, 8 h)
MDADEGQDMSQVSGKESPPVSDTP [IKZF1] | 5.35 ± 0.28 | 5.28 ± 0.6
MDDDFGVVKEEISDDNAKLPCFNG [DVL3] | 5.18 ± 0.19 | 5.21 ± 0.15
MEALKLQPGLSFLNLGSGTGYLST [PCMTD1] | 2.3 ± 0.2 | 2.31 ± 0.22
MEEMEEELKCPVCGSFYREPIILP [TRIM9] | 4.05 ± 0.35 | 4.38 ± 0.28
MEGTPTIKSKKKLLQIIDTTLLKC [VPS39] | 2.25 ± 0.24 | 2.36 ± 0.25
MELSWGQSPGQPVQGGSEAWGPGT [TEX19] | 3.86 ± 0.53 | 4.06 ± 0.36
MGGAVSAGEDNDELIDNLKEAQYI [PCMTD2] | 5.1 ± 0.15 | 4.95 ± 0.21
MGQWQLEVGDPAPLGAGNLGPELI [DPCD] | 3.42 ± 0.23 | 3.48 ± 0.2
MGSGTSTQHHFAFQNAERAFKAAA [PPEF2] | 3.46 ± 0.43 | 2.98 ± 0.25
MKVKVIPVLEDNYMYLVIEELTRE [HAGHL] | 2.94 ± 0.55 | 2.95 ± 0.56
MLSPQRVAAAASRGADDAMESSKP [ATL3] | 5.21 ± 0.22 | 5.25 ± 0.25
MMRGLSYSLTTSSTHKSSLCKVEI [RAB40A] | 2.31 ± 0.59 | 2.28 ± 0.46
MNPYNAVLTKKFQVTMRGLLSCLS [FBXO39] | 2.7 ± 0.75 | 2.72 ± 0.23
MQEFFGLKVTGKPDAETLKVMKQP [MMP1] | 3.47 ± 0.15 | 3.53 ± 0.34
MQRKQSLGKPDQKDLNENLAATQG [DLC1] | 5.11 ± 0.37 | 4.99 ± 0.45
MRDLYMKNGQGFALVYSITAQSTF [RAP1B] | 2.85 ± 0.79 | 2.78 ± 0.6
MSGDGATEQAAEYVPEKVKKAEKK [CSTF3] | 5.52 ± 0.18 | 5.65 ± 0.15
MSGQTLTDRIAAAQYSVTGSAVAR [SNAP91] | 4 ± 0.19 | 3.98 ± 0.2
MSPGDCPPETTETPKCSSPRGQEG [YJU2B] | 5.44 ± 0.43 | 5.5 ± 0.11
MSPLQAMSSYTVAGRNVLRWDLSP [NLN] | 2.06 ± 0.31 | 2.55 ± 0.42
